# In article PMC9803922, “Seawater fish use an electrogenic boric acid transporter, Slc4a11A, for boric acid excretion by the kidney” (The Journal of Biological Chemistry, 2022):
# B1: Slc4a11A (mfSlc4a11A) (Takifugu obscurus) (protein)
# chain: MDMLSQEMELKDEKKEDYGEDSDAIHIYDTEAYISVSDPDRPGFGLLNTTRKYVKPMNFQEEVRAHRDLDNFLAQASILLDERATTLDEVLRRMLAHLLEEGRESCDPDEVMSSVFTDAGGKDFDVHLLSETIQGVTSTSTGIHYQQSWLCILTNLRSLQRRHVCIARLDRPQNWGVNCCEARYVIFILAPPRTKSTKTAIELGRTFATMFSDISFRQRLLETKTQEEFKQELLSYRQKLSTVQEKPVEEEEEDSDPRRGKALQCKDFLKAGKGVYRDLRRRLPLYPSDFTDGLTGKDRCLLKYTTTAIFLYIAILLPAIAFGSLNDESTRGEIDVQKTIVGQSIGGVIYALFAGSPLVIPLTTAPLAIFISVIRGICDDYDLDFDSFYACIGLWNSLFLILGGLFNVSLLMKLFKRSTEEVIALFISIAFVGDAVKGTVKIFQHFYRGPTLTTTNSTLVFQQLEGILNQTNNQTGNGLGEHGQADGHTLVFLPQSLVECTREMPILCLLLMLGTLWLGYTLYLIRRSPYLNDKIREVVSDCALPISVVICSFIGSYLFLNIKLPVFSVHDGPIFNYPPFDKLSGMSALSAVGLGFLLALLIFIDQNIVISLTHVPEHKLLKGTAFHWDLMLTGFINILMSCLGLPWMHAAFPHSSLHARQLAKVEQHVENGHLYTTIVSVKETRLTALAANILIGLSAFMLPIPLQWIPKPVLYGLFLYIAATSLDGNQMVDRMCLLLKEQTSYPPTHYVRRVPQRKVHFFTGVQMIQLIILCAFGMYPLPYMKMVFPLLMILLVPIRTSLLPKMIDAKYLDIMDAQHM
# notes: full-length cDNA in pGEMHE, untagged, expressed in Xenopus laevis oocytes; 820 residues; C-terminal region antigen peptide PKMIDAKYLDIMDAQHM
# Substrate: OB(O)O
# Assay: two-electrode voltage clamp, boric acid-elicited currents in Xenopus oocytes
# Assay type: cell-based, Takifugu obscurus
# Conditions: total boric acid (B(OH)3 + B(OH)4-), Vh +60 mV, pH 7.5, 18 °C, Na+-independent electrogenic transport
protein,measurement,value
B1,Km,6.5 ± 0.6 mM
